Assay results from the DeepSol protein solubility set.

Test: soluble on expression in E. coli; label from the status in PepcDB or PDB records

| Sequence | soluble on expression in E. coli |
| --- | --- |
| MIVAFENNVVCSDEKVRDYLLAHHADLKEDQDEDALCLVRLHKEEDIDGTDRVDLAGWREISRELYWTGEQMECNYSIIRFSRKTTSLQMSVVLSTCNQLEWLEKVLWGYEAQDTKNFELIIADDGSRKETYDMLQRITPQLSFQVKHVWHEDKGFRKCDILNKGILAAQADYLLFSDGDCIPRKDFVSTHLCLRRKGRFLSGGYHKLSMDLSKDITKDDILSGRCFDLQWMRGKGMPASFKNNKLTATGFKRWALNTFTPTKASWNGHNASGWLSDILAVNGFDERMQYGGQDREFGERLENYGIHGMQIRYSTVCLHLDHARGYKTKDSIQKNRNIRKHTRGAKVQWASLGIVKDELRGQSVKVNSYYDRYTREEEKLTSYKEKGGFYRHIYSLPCRWRRAKYHDKVVRAYQQDTDAPALSNHSGVIVSLTTFPPRISQLHLMLKSILWQTCPPEKIIVWLSEQEFPGRLNDLPEELKRLMAKGIAFRFVSENFRSHKKYHYVFREYPDSKVITVDDDLIYPRNTVERLLSLSYQYPDTVCGNVIRKIHMDGNSFSVYRKWTKVFTMPVNSSLQNVAIGCGGIYYPPHWYGEELFDWKIISEHCPSADDLWLKANELKRRVKVTGGGEFYPRPIELPQTQNNSLQKKNNGKTNLNDKQWKSLNELWKLDELYCINGK | not soluble |
| MMIDDSKVSFVIPTINEEGTIGSVIDGIRSEFPNSEIIVVDTNSTDRTREIARSKGARVIEEPRRGYGRAYQTGIPAASGEIIVCMDGDGTYPTDVVKPLIELLIADRVDFISCDRITFRTSKNYTTLHYVGNMVLNLTIRILFKVRMVDSQSGMWVFRSEIYRKMKNLGNGMSFSQNIKIEAVRHGVFMEIPIRYGVRITKPKLKTWHDGFHNLFALFVKRVSELEHHHHHH | soluble |
| MSLEEPRGINYVELSTDDLGTLTRQMHQLGFQFIGYHRSKPHVQLWLRGQARIIVSEVTEEAGTTSAPVNGTFLRGIGFEVTDSQSAMDRAALLHAEEVPRDQAHDDEVLRGVFAPDGSEVFFHQFDAATPAWIKEFGHDHDEQVSHIDHVNLAQPSNHYDEAVLFYTSLLALHAQSSQDVPSPSGLVRSQVMSSTDGSVRMPLNVSPQPNAEAVAGRGIGSVVEAYPEHVAVACEDIFQAAATALSRGLDFLPVPQNYYEDLDSRFDLDLEFLQRLQENHVLYDRDEHGEFLHFYTSTIGSVFFEMIERRGDYLGFGAPDAPVRLAAQHRKNSQREGHHHHHH | not soluble |
| MDTELMKLDVHVTAWSRTPSSSGFLNSVMISRDRDFEEFIINDRDGSVTSLGSYQNPSRGPDPLIFLDFRNFEPNYVYQLLLSQFHDHVLSEHIADQIGYTFGTCNSPTSTTDLDQESEEEE | soluble |
| MGSSHHHHHHGGTGENLYFQGGSGKNYFYIPIADDMHCHLRQGDMLDFTVNSIRRGGCNRVLVMPNTHPIISTCSDAQKYLYQLKSRDDDIEYLMTLYLNKNTDENDILSNYYKCNLQGVKIYPSNVTTNSSDGITSLEPYYKVFHALEKLNKSIHIHCEEPNINPLYAEEKYLPHIHDLAIKFPGLNIVLEHISSSESINVIKEFRNVAGSITPHHLYLTIDDVVNMDIYDHAIDNTYIEKYIKNTYHYCKPLPKLLEDKIALQDVIKDDFPRVFLGSDSAPHYKVMKRKPYYKPGIYTQPFLINYVAHILNKFDALDKMENFTSKNASLFLNLAEKKKLAKYYICVEKHPFKLPREYNGVVPFLAGKTLDYDIHYVSKF | not soluble |
| MAVVKVIRKLKAKRVVIKVGTSTLVYPDGSINLRAIDQLAFVISAMRHRGREVVLVSSGAIGVGLNYMGLKQRPKAIPEQQAIAAIGQTELISIYKERFAIYEQKIGQLLLTRDIFVYPKSHHNVLNTFEALLKQNVVPIVNENDTVAVDELDHETKFGDNDQLSAIVATNIGADLLIMLSDIDGFYDGNPNADARAQLLGHIEKVDQHTYKLAGGSGSRFGTGGMVTKLKAAERMIDANGQMILANGADPTIIFQILAGEPVGTLFGLEHHHHHH | not soluble |
| MGSDKIHHHHHHMNARTLDPTERLIEKEPYYEPVGEEIALFEAAYRQRIPVLLKGPTGCGKTRFMEHMAWRLQRPLITVSCHDDLTASDLVGRYLVKGGETVWVDGPLTRAVRCGGICYLDEIVEARKDTMVVIHPLADDRRTLAMEKLGQMLEAPAEFCLAISYNPGYQSVLKDLKQSTRQRFVALEFDYPSAALEQRIVATESGVSDAVADKLVRFAQMTRNLKGSGLEEGASTRLLVHAGKLISDGISPVTACKSAVAQAVTDDADMLKAIQELSSSVF | not soluble |
| MSLRFEGIYTPAVTPHTPDGDIDWAVFSEVLESLIEANVHGIIIGGSTGEYYAQTAEERLKLAAHAKDVMGNRVQLIIGTGAIRTEDAVLFAKDAKALKADAILVTTPPYALPTDQENAIHALTIDRAANMPIMLYNYPGRMGVQMNEDYLARVGKSKNVIAIKESSGEMGRVHLLAREFPHIALSCGWDDQALEFFAWGARSWVCAGSNFLPREHVALYEACVIEKNFDKGRQIMSAMMPLMHALDGGKFVQCIKFGCELNGLKVGDVRAPLRPLNAEDKRSLQTVIANVKEGHHHHHH | not soluble |
| MHGEETPRTDLTLFSEKMQELKSRIASVIVGQERTVDLVLTAILANGHVLIEGVPGVAKTLLARLTARLIDADFSRVQFTPDLMPSDVLGTTVFNMKTNEFDFHRGPVFANIILVDEINRAPAKTQSALFEVMEERQASIDGTTYRMGELYTILATQNPVEQEGTYKLPEAQLDRFLMKITMDYPSLDEEINILERHHTNAALVKLEEIQPVITREELLSLRRLTEKVFVDRTLLQYIALIAQQTRTSKAVYLGASPRASVAMLQASKAYALLQGRDFVTPEDIKFVAPYVLQHRLILTAEAEMEGYSPVKVTQRLIDKVEVPKLEHHHHHH | soluble |
| MGSFMTDIAVIINNRAKNAHRMEDYLSELRAHDIDYQLYKADPQQLEKNIQHCCSKYPLLLIGGGDGTVRSAAQWCSNTSVILGVLPLGTMNHFSKELNLPSTTEELIAAIVEKTTTTIDVAEVNGH | not soluble |
| MDKPVDKPAKGKRPAAAGRGSKPRSASAERVRRHREKMKAMGLKPVTIWVPEDYNSPEYKAEIRRECELINADPESEIVLEGMWELADFGDWKA | not soluble |
| MKPKAMIRTMAIMKTADILKAMDITEELAKRMGFLPRDCLFLRLATEEACTNAYEYCQKTRKLPFRIFWKMEARQFMIIVKQRGGCFSVAQTDVVNTGPRGRGLQLITHIVDDVYVKQAGNNVLFCMCKCKK | not soluble |
| MSLDRPRCCLRGKECSINRFQQVESRWGYSGTSDRIRFSVNKRIFVVGFGLYGSIHGPTDYQVNIQIIHTDSNTVLGQNDTGFSCDGSASTFRVMFKEPVEVLPNVNYTACATLKGPDSHYGTKGMRKVTHESPTTGAKTCFTFCYAAGNNNGTSVEDGQIPEVIFYTEGHHHHHH | soluble |
| MSLKPLHYTASALALGLALMGNAQAVTTIPFWHSMEGELGKEVDSLAQRFNAENPDYKIVPTYKGNYEQNLSAGIAAFRTGNAPAILQVYEVGTATMMASKAIKPVYDVFKEAGIQFDESQFVPTVSGYYSDSKTGHLLSQPFNSSTPVLYYNKDAFKKAGLDPEQPPKTWQDLADYAAKLKASGMKCGYASGWQGWIQLENFSAWNGLPFASKNNGFDGTDAVLEFNKPEQVKHIAMLEEMNKKGDFSYVGRKDESTEKFYNGDCAMTTASSGSLANIREYAKFNYGVGMMPYDADAKDAPQNAIIGGASLWVMQGKDKETYTGVAKFLDFLAKPENAAEWHQKTGYLPITKAAYDLTREQGFYEKNPGADTATRQMLNKPPLPFTKGLRLGNMPQIRVIVDEELESVWTGKKTPQQALDTAVERGNQLLRRFEKSTKSEGGSHHHHHH | soluble |
| MKVNKALTIAGSDSGGGAGIQADLKTFQELGVYGMTAITAITAQNTLGVQGVYPVSLEGITEQLNSIGTDLTPDAVKIGMLFSSEIIQIVAEYINKFGWNNIVLDPVMIAKGGASLLQQEAVQALKEYLLPVATVITPNVPEAEVLTGLEIHNIEDSKEAAKVLHELGAKYVLMKGGHAEYQGNEVIDLLFDGEKFIEFRSERIPSKQTHGSGCTFASAVTAGLAKGYSMEEAVQEAKRFISIAIEEPLHIGSGHGPTNHFAYKMNKAQV | not soluble |
| MGSDKIHHHHHHMLKRLLDYNDGEEMDIVVLIKNSQLRRNKKDKLFLAMQFGDGSGEIRGNYWDASHQDAATFSTGTIVELNGKREEYQGRPQIRIYSLRVVGPQEGYSLDEFIKSAPETTNDMKGEIDDFVKQIQNRTWRSIVEYLLKKWDKRFFDYPAGKSNHHALRGGLAYHTLAMLKDARGLADNYEQINRSLLYAGCILHDMGKVQELTGPAATQYTIEGNLVGHLVLIDEQIMLAAQDLKIDLESEDLLLLRHMVLSHHGKFEYGSPKLPALLEAEILHRIDDLDAMVYAVTNALQHTGKGTFTEPLQSQDGKRYYRPKNDPELDQAKNLE | not soluble |
| MGHHHHHHSHMEKSEPVDQRRHTAGKAIVDSRSAQPKETSEERKARLSEWKAGKGRVLKRPPNSVVTQHEPAGQNEKPVGSFWTTMAEEDEQRLFTEKVNNTFSECLNLINEGCPKEDILVTLNDLIKNIPDAKKLVKYWICLALIEPITSPIENIIAIYEKAILAGAQPIEEMRHTIVDILTMKSQEKANLGENMEKSCASKEEVQEVSIEDTGVDVDPEKLEMESKLHRNLLFQDCEKEQDNKTKDPTHDVKTPNTETRTSCLIKYNVSTTPYLQSVKKKVQFDGTNSAFKELKFLTPVRRSRRLQEKTSKLPDMLRDHYPCVSSLEQLTELGRETDAFVCRPNAALCRVYYEADTT | not soluble |
| MLKLFSAFRKNKIWDFNGGIHPPEMKTQSNGTPLRQVPLAQRFVIPLKQHIGAEGELCVSVGDKVLRGQPLTRGRGKMLPVHAPTSGTVTAIAPHSTAHPSALAELSVIIDADGEDCWIPRDGWADYRTRSREELIERIHQFGVAGLGGAGFPTGVKLQGGGDKIETLIINAAECEPYITADDRLMQDCAAQVVEGIRILAHILQPREILIGIEDNKPQAISMLRAVLADSNDISLRVIPTKYPSGGAKQLTYILTGKQVPHGGRSSDIGVLMQNVGTAYAVKRAVIDGEPITERVVTLTGEAIARPGNVWARLGTPVRHLLNDAGFCPSADQMVIMGGPLMGFTLPWLDVPVVKITNCLLAPSANELGEPQEEQSCIRCSACADACPADLLPQQLYWFSKGQQHDKATTHNIADCIECGACAWVCPSNIPLVQYFRQEKAEIAAIRQEEKRAAEAKARFEARQARLEREKAARLERHKSAAVQPAAKDKDAIAAALARVKEKQAQATQPIVIKAGERPDNSAIIAAREARKAQARAKQAELQQTNDAATVADPRKTAVEAAIARAKARKLEQQQANAEPEQQVDPRKAAVEAAIARAKARKLEQQQANAEPEEQVDPRKAAVEAAIARAKARKLEQQQANAEPEQQVDPRKAAVEAAIARAKARKREQQPANAEPEEQVDPRKAAVEAAIARAKARKLEQQQANAVPEEQVDPRKAAVAAAIARAQAKKAAQQKVVNEDLEHHHHHH | soluble |
